Assay results from US20090010911A1, “METHODS AND COMPOSITIONS FOR AFFECTING CYCLOPHILIN A REGULATION OF KINASES IN MODULATING CELLULAR ACTIVITIES” (IOWA STATE UNIVERSITY RESEARCH FOUNDATION, INC., priority 2007, published 2009).

T1: Itk full-length enzyme (Mus musculus, UniProt Q03526)
T1 construct: Full-length Itk, Btk and Tec and the Itk kinase domain fragments were PCR amplified; made in house; host or cells: Sf9 insect cells (baculovirus), co-infected 1:1 with Lck baculovirus
T1 sequence (Q03526 1-625): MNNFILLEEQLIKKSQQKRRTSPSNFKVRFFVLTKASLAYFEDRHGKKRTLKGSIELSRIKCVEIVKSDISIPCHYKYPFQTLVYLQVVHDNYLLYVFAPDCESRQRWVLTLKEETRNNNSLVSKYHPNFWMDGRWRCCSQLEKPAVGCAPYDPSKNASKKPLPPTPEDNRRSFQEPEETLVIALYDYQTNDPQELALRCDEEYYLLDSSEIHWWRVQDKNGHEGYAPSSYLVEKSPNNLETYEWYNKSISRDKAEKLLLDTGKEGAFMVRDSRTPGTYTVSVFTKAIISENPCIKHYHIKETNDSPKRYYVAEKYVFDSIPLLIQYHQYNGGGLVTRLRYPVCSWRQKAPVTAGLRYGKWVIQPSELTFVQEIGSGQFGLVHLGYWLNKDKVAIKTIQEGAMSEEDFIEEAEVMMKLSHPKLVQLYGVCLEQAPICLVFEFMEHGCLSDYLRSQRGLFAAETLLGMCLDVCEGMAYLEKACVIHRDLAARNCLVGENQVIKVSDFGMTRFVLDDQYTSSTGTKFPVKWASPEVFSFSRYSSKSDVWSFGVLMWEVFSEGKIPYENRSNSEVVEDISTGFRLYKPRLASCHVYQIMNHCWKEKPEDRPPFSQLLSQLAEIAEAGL

B1: PLCγ1 SH2C domain: isolated carboxy-terminal SH2 domain of PLCγ1 (protein)
chain: QTNAHESKEWYHASLTRAQAEHMLMRVPRDGAFLVRKRNEPNSYAISFRAEGKIKHCRVQQEGQTVMLGNSEFDSLVDLISYYEKHPLYRKMKLRYPI
B2: Itk SH2 domain: isolated exogenous SH2 domain of Itk, purified from bacteria (protein)
chain: EWYNKSISRDKAEKLLLDTGKEGAFMVRDSRTPGTYTVSVFTKAIISENPCIKHYHIKETNDSPKRYYVAEKYVFDSIPLLIQYHQYNGGGLVTRLRYPVCSWRQKA

Molecular target: T1, Itk full-length enzyme
Test: In vitro kinase assay with western blotting, phosphorylation of SH2 domain-containing substrates with added free SH2 domain or CypA
Type: biochemical
Procedure: Substrate used in each experiment is indicated above each set of blots. 4(a) (left) Itk 32 substrate was incubated with Itk full-length enzyme as before (lane 1), or with Itk 32 domain:free Itk SH2 domain in ratios of 1:10, 1:25 or 1:50 (lanes 2-4, respectively) or equivalent ratios of PI3K N-terminal SH2 domain (lanes 5-7) and subjected to an in vitro kinase assay. […] Coomassie stain and an anti-FLAG blot (bottom panels) show protein levels. (right) The PLCγ1 SH2 domain competes with the PLCγ1 substrate in a similar manner. Lane 1 contains only Itk enzyme and PLCγ1 SH2C-Y783-substrate without additional free SH2 domain. Ratios of free SH2 domain to substrate are 1:5, 1:10 or 1:50 in lanes 2-4, respectively and equivalent ratios of PI3K SH2 domain are used in lanes 5-7. Coomassie stain of the gel and an anti-Itk blot (bottom panels) show protein levels. 4(b) Same experiment as shown in (a) using the Grb2 SH2 domain as a control. (left) Itk 32 substrate was incubated with Itk full-length enzyme (lane 1), or with Itk 32 domain:free Itk SH2 domain in ratios of 1:10 and 1:25 (lanes 2 & 3) or equivalent ratios of Grb2 SH2 domain (lanes 4 & 5) and subjected to an in vitro kinase assay. (right) Identical experiment following PLCγ1 substrate phosphorylation in the presence of the PLCγ1 and Grb2 SH2 domains. Lane 1 is PLCγ1 substrate alone; lanes 2 & 3 are PLCγ1 substrate:PLCγ1 SH2 domain in a 1:10 and 1:25 ratio, respectively and lanes 4 & 5 are identical ratios of PLCγ1 substrate:Grb2 SH2 domain. 4(c) The Itk SH2 domain competes with autophosphorylation of Y180 within full length Itk. For lanes 2-4, the amount of free SH2 domain is the same as used in panel (a), lanes 2-4. No exogenous SH2 domain has been added in lane 1 and full length Itk is both the enzyme and the substrate. Coomassie stain and an anti-FLAG blot (bottom panels) show protein levels. […] Initial velocities are shown for phosphorylation of peptide B (sequence shown in FIG. 5a) by full length Itk in the absence (column 1) and presence (column 2 and 3) of Itk SH2 domain. […]

Molecule	inhibition of PLCγ1 SH2C-Y783- substrate phosphorylation by free SH2 domain (substrate:free SH2 domain ratios 1:5 to 1:50)	autophosphorylation of Tyr 180 within full length Itk upon addition of free SH2 domain (full length Itk is both enzyme and substrate)	inhibition of Itk 32 substrate phosphorylation (Y180) by free SH2 domain (substrate:free SH2 domain ratios 1:10, 1:25, 1:50)
B1	inhibits substrate phosphorylation		
B2		greatly diminished	inhibits substrate phosphorylation
